Measured values as given in publication PMC5880107, “The Sequence-specific Peptide-binding Activity of the Protein Sulfide Isomerase AGR2 Directs Its Stable Binding to the Oncogenic Receptor EpCAM*^([image sbox.jpg])” (Molecular & Cellular Proteomics : MCP, 2018).

B1: His-AGR2 WT (mature AGR2, amino acids 21-175, N-terminal 6xHis tag; plasmid pmAGR2) [human] / His-EpEX-CO, extracellular domain of EpCAM (amino acids 24-265), N-terminal 6xHis tag [human] (parent)
chain 1: RDTTVKPGAKKDTKDSRPKLPQTLSRGWGDQLIWTQTYEEALYKSKTSSKPLMIIHHLDECPHSQALKKVFAENKEIQKLAEQFVLLNLVYETTDKHLSPDGQYVPRIMFVDPSLTVRADITGRYSNRLYAYEPADTALLLDNMKKALKLLKTEL
chain 2: QEECVCENYKLAVNCFVNNNRQCQCTSVGAQNTVICSKLAAKCLVMKAEMNGSKLGRRAKPEGALQNNDGLYDPDCDESGLFKAKQCNGTSMCWCVNTAGVRRTDKDTEITCSERVRTYWIIIELKHKAREKPYDSKSLRTALQKEITTRYQLDPKFITSILYENNVITIDLVQNSSQKTQNDVDIADVAYYFEKDVKGESLFHSKKMDLTVNGEQLDLDPGQTLIYYVDEKAPEFSMQGLK

Variants of: B1
Assay: ELISA (His-EpCAM solid phase; His-AGR2 mobile phase)
Conditions: with His-EpEX-CO, point at 0.5 μg AGR2 (highest dose of the titration), +DTT Blocking (DTT only in the blocking step, before AGR2 binding), read off a plot

Variant | response
chain 1 RDTTVKPGAKKDTKDSRPKLPQTLSRGWGDQLIWTQTYEEALYKSKTSSKPLMIIHHLDECPHSQALKKVFAENKEIQKLAEQFVLLNLVYETTDKHLSPDGQYVPRIMFVDPALTVRADITGRYSNRLYAYEPADTALLLDNMKKALKLLKTEL [chain 1 S114A] | 110 RLU

Same assay, conditions: with His-EpEX-CO, point at 0.5 μg AGR2 (highest dose of the titration), no DTT in the blocking step, read off a plot

Variant | response
chain 1 RDTTVKPGAKKDTKDSRPKLPQTLSRGWGDQLIWTQTYEEALYKSKTSSKPLMIIHHLDECPHSQALKKVFAENKEIQKLAEQFVLLNLVYETTDKHLSPDGQYVPRIMFVDPALTVRADITGRYSNRLYAYEPADTALLLDNMKKALKLLKTEL [chain 1 S114A] | 160 RLU
